Experimental data taken from the RNAGym collection of RNA variant scans (doi:10.1101/gr.219683.116).

B1: mRNA-splicing (parent)
chain: AGUUGCUGCUGGGAGCUCCAGCACAGUGAAAUGGACAGAAGGGCAGAGCAA

Variants of: B1
Assay: exon inclusion enrichment index; higher = more inclusion; WT1 exon 5 minigene, HEK293

Row | Variant | exon inclusion enrichment index
1 | AGUUUCUUUUGGGAGCUCCAGCACAGUGAAAUGGACAGAAGCUCAGAGCAA [G5U G8U C9U G42C G43U] | 0.515
2 | AGUUUCUUUUGGGAGCUCCAGCACAGUGAAAUGGACAGAAGCCCAGAGCAA [G5U G8U C9U G42C G43C] | 0.708
3 | AGUUUCUUUUGGGAGCUCCAGCACAGUGAAAUGGACAGAAGCACAGAGCAA [G5U G8U C9U G42C G43A] | 0.494
4 | AGUUUCUUUUGGGAGCUCCAGCACAGUGAAAUGGACAGAAGUGCAGAGCAA [G5U G8U C9U G42U] | 0.227
5 | AGUUUCUUUUGGGAGCUCCAGCACAGUGAAAUGGACAGAAGCGCAGAGCAA [G5U G8U C9U G42C] | 0.786
6 | AGUUUCUUUUGGGAGCUCCAGCACAGUGAAAUGGACAGAAGAGCAGAGCAA [G5U G8U C9U G42A] | 0.667
7 | AGUUUCUUUUGGGAGCUCCAGCACAGUGAAAUGGACAGAAGGGCACGGCAA [G5U G8U C9U G46C A47G] | 0.306
8 | AGUUUCUUUUGGGAGCUCCAGCACAGUGAAAUGGACAGAAGGGCACUGCAA [G5U G8U C9U G46C A47U] | 0.15
9 | AGUUUCUUUUGGGAGCUCCAGCACAGUGAAAUGGACAGAAGGGCACCGCAA [G5U G8U C9U G46C A47C] | 0.234
10 | AGUUUCUUUUGGGAGCUCCAGCACAGAGAAAUGGACAGAAGGGCAGAGCAA [G5U G8U C9U U27A] | 0.208
11 | AGUUUCUUUUGGGAGCUCCAGCACAGCGAAAUGGACAGAAGGGCAGAGCAA [G5U G8U C9U U27C] | 0.478
12 | AGUUUCUUUUGGGAGCUCCAGCACAGGGAAAUGGACAGAAGGGCAGAGCAA [G5U G8U C9U U27G] | 0.0266
13 | AGUUUCAAUUGGGAGCUCCAGCACAGUGAAAUGGACAGAAGGGCAGAGCAA [G5U U7A G8A C9U] | 0.454
14 | AGUUUCUUUGAGGAGCUCCAGCACAGUGAAAUGGACAGAAGGGCAGAGCAA [G5U G8U C9U U10G G11A] | 0.429
15 | AGUUUCUUUGUGGAGCUCCAGCACAGUGAAAUGGACAGAAGGGCAGAGCAA [G5U G8U C9U U10G G11U] | 0.498
16 | AGUUUCUUUGCGGAGCUCCAGCACAGUGAAAUGGACAGAAGGGCAGAGCAA [G5U G8U C9U U10G G11C] | 0.742
17 | AGUUUCUUUUGGGAGCUCCAGCACAGUGAAAUGGACAGAAGGGCAAGGCAA [G5U G8U C9U G46A A47G] | 0.0611
18 | AGUUUCUUUUGGGAGCUCCAGCACAGUGAAAUGGACAGAAGGGCAAUGCAA [G5U G8U C9U G46A A47U] | 0.164
19 | AGUUUCUUUUGGGAGCUCCAGCACAGUGAAAUGGACAGAAGGGCAACGCAA [G5U G8U C9U G46A A47C] | 0.466
20 | AGUUUCAGUUGGGAGCUCCAGCACAGUGAAAUGGACAGAAGGGCAGAGCAA [G5U U7A C9U] | 0.173
21 | AGUUUCUUUUGGGAGCUCCAGCACAGUGAAAUGGACAGAAGGUCAGAGCAA [G5U G8U C9U G43U] | 0.16
22 | AGUUUCUUUUGGGAGCUCCAGCACAGUGAAAUGGACAGAAGGACAGAGCAA [G5U G8U C9U G43A] | 0.671
23 | AGUUUCUUUUGGGAGCUCCAGCACAGUGAAAUGGACAGAAGGCCAGAGCAA [G5U G8U C9U G43C] | 0.199
24 | AGUUUCUUUACGGAGCUCCAGCACAGUGAAAUGGACAGAAGGGCAGAGCAA [G5U G8U C9U U10A G11C] | 0.155
25 | AGUUUCUUUAUGGAGCUCCAGCACAGUGAAAUGGACAGAAGGGCAGAGCAA [G5U G8U C9U U10A G11U] | 0.0867
26 | AGUUUCUUUAAGGAGCUCCAGCACAGUGAAAUGGACAGAAGGGCAGAGCAA [G5U G8U C9U U10A G11A] | 0.0324

Row | Variant | exon inclusion enrichment index
27 | AGUUUCUUUGGGGAGCUCCAGCACAGUGAAAUGGACAGAAGGGCAGAGCAA [G5U G8U C9U U10G] | 0.095
28 | AGUUUCUUUAGGGAGCUCCAGCACAGUGAAAUGGACAGAAGGGCAGAGCAA [G5U G8U C9U U10A] | 0.00828
29 | AGUUUCUUUCGGGAGCUCCAGCACAGUGAAAUGGACAGAAGGGCAGAGCAA [G5U G8U C9U U10C] | 0.561
30 | AGUUUCUUUUGGGAGCUCCAGCACAGUGAAAUGGACAGAACGGCAGAGCAA [G5U G8U C9U G41C] | 0.706
31 | AGUUUCUUUUGGGAGCUCCAGCACAGUGAAAUGGACAGAAUGGCAGAGCAA [G5U G8U C9U G41U] | 0.17
32 | AGUUUCUUUUGGGAGCACCAGCACAGUGAAAUGGACAGAAGGGCAGAGCAA [G5U G8U C9U U17A] | 0.136
33 | AGUUUCUUUUGGGAGCGCCAGCACAGUGAAAUGGACAGAAGGGCAGAGCAA [G5U G8U C9U U17G] | 0.13
34 | AGUUUCUUUUGGGAGCCCCAGCACAGUGAAAUGGACAGAAGGGCAGAGCAA [G5U G8U C9U U17C] | 0.0866
35 | AGUUUCUUUUGGGAGCCACAGCACAGUGAAAUGGACAGAAGGGCAGAGCAA [G5U G8U C9U U17C C18A] | 0.0484
36 | AGUUUCUUUUGGGAGCCUCAGCACAGUGAAAUGGACAGAAGGGCAGAGCAA [G5U G8U C9U U17C C18U] | 0.0755
37 | AGUUUCUUUUGGGAGCCGCAGCACAGUGAAAUGGACAGAAGGGCAGAGCAA [G5U G8U C9U U17C C18G] | 0.151
38 | AGUUUCUUUUGGGAGCUCCAGCACAGUGAAAUGGACAGAAGGAAAGAGCAA [G5U G8U C9U G43A C44A] | 0.667
39 | AGUUUCUUUUGGGAGCUCCAGCACAGUGAAAUGGACAGAAGGAUAGAGCAA [G5U G8U C9U G43A C44U] | 0.177
40 | AGUUUCUUUUGGGAGCUCCAGCACAGUGAAAUGGACAGAAGGAGAGAGCAA [G5U G8U C9U G43A C44G] | 0.749
41 | AGUUUCUUUUGGGAGCAGCAGCACAGUGAAAUGGACAGAAGGGCAGAGCAA [G5U G8U C9U U17A C18G] | 0.0888
42 | AGUUUCUUUUGGGAGCAACAGCACAGUGAAAUGGACAGAAGGGCAGAGCAA [G5U G8U C9U U17A C18A] | 0.0626
43 | AGUUUCUUUUGGGAGCAUCAGCACAGUGAAAUGGACAGAAGGGCAGAGCAA [G5U G8U C9U U17A C18U] | 0.0627
44 | AGUUUCUUUUGGGAGCUCCAGCACAGCAAAAUGGACAGAAGGGCAGAGCAA [G5U G8U C9U U27C G28A] | 0.135
45 | AGUUUCUUUUGGGAGCUCCAGCACAGCUAAAUGGACAGAAGGGCAGAGCAA [G5U G8U C9U U27C G28U] | 0.0729
46 | AGUUUCUUUUGGGAGCUCCAGCACAGCCAAAUGGACAGAAGGGCAGAGCAA [G5U G8U C9U U27C G28C] | 0.257
47 | AGUUUCUUUUGGGAGCUCCAGCACAGUGAAACCGACAGAAGGGCAGAGCAA [G5U G8U C9U U32C G33C] | 0.216
48 | AGUUUCUUUUGGGAGCUCCAGCACAGUGAAACUGACAGAAGGGCAGAGCAA [G5U G8U C9U U32C G33U] | 0.0499
49 | AGUUUCUUUUGGGAGCUCCAGCACAGUGAAACAGACAGAAGGGCAGAGCAA [G5U G8U C9U U32C G33A] | 0.0483
50 | AGUUUCUUUUGGGAGCUCCAGCACAGUGAAAUGGACAGAAGACCAGAGCAA [G5U G8U C9U G42A G43C] | 1.72
51 | AGUUUCUUUUGGGAGCUCCAGCACAGUGAAAUGGACAGAAGAUCAGAGCAA [G5U G8U C9U G42A G43U] | 1.46
